Experimental data published in US8926955B2, “Synthesis of polymer conjugates of indolocarbazole compounds” (priority 2008, dated 2015).

Key:
[1] = system: mouse lymphoma L5178Y cells; assay: Preliminary cytotoxicity assay in L5178Y cells; assay type: cell-based
Description: A preliminary cytotoxicity assay was performed. Based on the solubility results, the test item was assayed at a maximum dose level of 5000 μg/ml both in the absence and presence of S9 metabolism. A wide range of lower dose levels were included in the treatment series: 2500, 1250, 625, 313, 156, 78.1, 39.1 and 19.5 μg/ml.

[2] = system: New Zealand White Specific Pathogen Free (SPF) rabbits; conditions: rabbit, in vivo
Description: (§1) Three groups, each of 6 male and 6 female New Zealand White Specific Pathogen Free (SPF) rabbits (cf. Table 3: male numbered with even numbers, female numbered with uneven numbers), received the test item by dermal application at dosages of 0.5, 2.5 and 5 mg/animal/day for 13 consecutive weeks (Table 3, group numbers 2-4, respectively). A fourth similarly constituted group received the vehicle alone (purified water) and acted as a control (Table 3, group number 1). Control and high dose groups (Table 3, group numbers 4 and 1, respectively). included 3 additional animals per sex for recovery assessment.
(§2) The following investigations were performed: daily clinical signs, body weight, food consumption, macroscopic observations of the treatment sites, clinical pathology investigations, terminal body weight, organ weight, post mortem macroscopic observations and histopathological examination.
(§3) The treatment sites were examined, each day, approximately 3 hours after the start of dosing. Irritation of the sites, when compared to the adjacent untreated skin, was assigned a numerical value according to the table below:

rat = assay: Acute dermal toxicity study in rats; assay type: in vivo
Description: The acute toxicity of the conjugate of Example 3 was investigated following administration of a single dermal dose to the rat.
A single dose of 2000 mg/kg was administered to a group of 5 male and 5 female animals for a 24 hour period. The day before scheduled dosing the fur was removed from the dorsal surfaces of the trunk over an estimated area of 10% of the total body surface. Care was taken to avoid any damage or abrasion to the skin. The test item was administered topically at a dose volume of 4 ml/kg body weight, just after its preparation. The required aliquot of the formulated test item was spread evenly over a gauze measuring 2.5×2.5 cm. The gauze patch was then placed onto the animal's skin, with the test item in direct contact with the skin. A strip of synthetic film was placed over the treated site and the whole assembly held in place by encircling the trunk of the animal with a length of elastic adhesive bandage. After a period of 24 hours, the tape dressing will be removed. The treated skin site was then gently washed free of any remaining test item using lukewarm water. Throughout the study, all animals will be checked twice daily. Animals were examined for signs of reaction to treatment on dosing, approximately 30 min, 2 and 4 hours after dosing on day 1, then daily for a total of 14 days. Each animal was weighed on the day of allocation to the study, on the day of dosing (day 1) and on days 8 and 15. After a 14 day period all animals were killed and subjected to a necropsy examination.

[3] = system: New Zealand White Specific Pathogen Free (SPF) rabbits; assay: 13 week dermal toxicity study in rabbits with 4 week recovery
Description: as §1, §2, §3

[4] = rat, in vivo
Description: The purpose of this study was to evaluate the toxicity of the test item in rats after daily dermal administration (6 hours exposure) over a period of 13 weeks and to investigate possible recovery from any potential treatment-related effects over a period of 4 consecutive weeks. The toxicokinetic profile was also evaluated.
Three groups, each of 10 male and 10 female Sprague Dawley rats (cf. Table 1: male numbered with even numbers, female numbered with uneven numbers) received the test item by dermal application at dosages of 0.5, 2.5 and 5 mg/kg/day for 13 consecutive weeks (Table 1: group numbers 2-4). A fourth similarly constituted group received the vehicle alone (purified water) and acted as a control (Table 1: group number 1). Five additional animals for each sex were included in the high and control groups (Table 1: group numbers 4 and 1, respectively) for recovery assessment. In addition, 3 satellite groups for toxicokinetics, including 9 males and 9 females (Table 2: group numbers 5-8, respectively), and 1 control group, including 3 males and 3 females (Table 2: group number 5), were treated as the main groups for toxicokinetic evaluations.

[5] = 0.5, 2.5 and 5 mg/animal/day dermal, 13 weeks

## oxazolidindionic conjugate of K252a with PEG (1892 MW) [test item]
[1]; absence of S9, long treatment time, two higher concentrations, % of concurrent negative control
  relative survival: approximately 60%
[1]; absence of S9, short treatment time, several concentrations, no dose relationship
  relative survival: slight reduction of relative survival
[1]; presence of S9, up to 5000 μg/ml
  toxicity: no relevant toxicity was observed
[2]
  macroscopic and microscopic observations: no treatment-related changes were noted
rat; 2000 mg/kg single dermal dose
  abnormalities in the treated site: No abnormalities were observed in the treated site
  clinical signs: no clinical signs were observed
  internal abnormalities at necropsy: No internal abnormalities were found at necropsy
rat; 2000 mg/kg single dermal dose, 14 day observation
  mortality: No mortality occurred
rat; 2000 mg/kg single dermal dose, end of study
  changes in body weight: within the expected range
rat; dermal exposure over 24 hours at 2000 mg/kg
  toxic effect: no toxic effect
rat; single dermal dose, 24 hour exposure, rat
  LD50: greater than 2000 mg/kg
[3]; 0.5, 2.5 and 5 mg/animal/day
  adverse effects: No adverse effects were seen at any of the dose levels
[3]; [5]
  clinical signs: no treatment-related clinical signs were observed
  mortality: No treatment-related mortality occurred
[3]; 13 weeks dermal
  absolute and relative organ weight: no changes in absolute and relative organ weight of toxicological significance were observed
  body weight: No relevant differences in body weight were recorded
  food consumption: comparable to controls
  haematology and clinical chemistry: no changes of toxicological significance were recorded
  terminal body weight: comparable between control and treated groups
[3]; daily dermal administration to rabbits, 13 weeks
  No Observed Adverse Effect Level (NOAEL): 5 mg/animal/day
[3]; daily dermal, 13 weeks
  irritation of treated sites (macroscopic observations): No signs of irritation were observed
[3]; end of the treatment period
  ophthalmic examination: no treatment-related lesions were detected
[4]
  plasma levels / incidence of absorption: a lower incidence of absorption was detected
